Assay results from the supplement of paper PMC10567573.
± gives the standard deviation.

Experiment: protein stability index of a GFP-peptide fusion (GPS, HEK-293T) (PSI 1-6); higher = more stable
[1] = treatment: DMSO, c terminus: a fixed tail appended
[2] = treatment: MLN4924 1 uM, 8 h, c terminus: a fixed tail appended
[3] = treatment: DMSO, c terminus: native
[4] = treatment: MLN4924 1 uM, 8 h, c terminus: native
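Also: 24-mer peptide tiles fused after GFP, lentivirally expressed, FACS-sorted into six equal bins by GFP/DsRed ratio, decoded by Illumina sequencing, PSI is the read-weighted mean bin number.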

Row | Sequence | protein stability index [1] | protein stability index [2] | protein stability index [3] | protein stability index [4]
1 | IILTATDGLFDNMPDYMILQELKK [PPTC7] | 2.31 ± 0.32 | 2.22 ± 0.19 |  | 
2 | LHAELCQAGSSQGLSLCQFQNFSL [LPCAT4] | 2.42 ± 0.33 | 2.21 ± 0.13 |  | 
3 | LPLSHIAAQMMDIWVPIKIGALTY [ACSBG2] | 2.79 ± 0.76 | 2.73 ± 0.82 |  | 
4 | AAGTHDGSVYFWATPRQVPSLQHL [WSB1] | 2.52 ± 0.22 | 2.64 ± 0.21 |  | 
5 | FLNDRLANYLEKVRQLERENAELE [KRT36] | 3.21 ± 0.25 | 3.54 ± 0.49 |  | 
6 | GTQHMFEDDPSVLYVSLHRYDHGT [HDAC6] | 2.34 ± 0.37 | 2.5 ± 0.45 |  | 
7 | KASNSIISCFNNAPPAKLACPVCS [FAN1] | 2.92 ± 0.15 | 3.1 ± 0.4 |  | 
8 | QWNAGEKKLTGGANWQPKVAPATW [SNAP91] | 2.98 ± 0.33 | 3.07 ± 0.14 |  | 
9 | LCKNCFYLSNARPDNWFCYPCIPN [ZMYND11] | 2.2 ± 0.29 | 2.23 ± 0.053 |  | 
10 | DYAHGFGNISGEFWLGNEALHSLT [TNXB] | 2.43 ± 0.73 | 2.82 ± 0.57 |  | 
11 | FFHLSALKGYLYAVGGRNAAGELP [KLHL13] | 2.56 ± 0.62 | 2.27 ± 0.26 |  | 
12 | FLRCVTAALIYFAISITAIAKYSD [CMTM3] | 3.41 ± 0.29 | 3.43 ± 0.32 |  | 
13 | SRGGTRGWLPSHEGHLDDGGYTPD [RBMY1A1] | 4.73 ± 0.29 | 4.75 ± 0.24 |  | 
14 | SCIMENGHQPGTGPGDGPPEIAQN [SMTNL2] | 4.95 ± 0.28 | 4.99 ± 0.074 |  | 
15 | EVPDSYTGPRLSFPLLPDHATALV [PPEF2] | 3.23 ± 0.27 | 3.42 ± 0.28 |  | 
16 | QDLIEDLKLARKAYHDPMLKLSIM [NET1] | 2.33 ± 0.38 | 2.46 ± 0.26 |  | 
17 | YGSGDTPGGPCDSTLGGDIRESDP [TBX6] | 5.25 ± 0.31 | 5.27 ± 0.61 |  | 
18 | FYNTEDIKDWEDRFYLLLFSFLGL [PTGFR] | 2.41 ± 0.7 | 2.1 ± 0.47 |  | 
19 | KQPRKKRGRYRQYNSEILEEAISV [LCOR] | 3.92 ± 0.16 | 3.98 ± 0.13 |  | 
20 | ASFRVTTGTSNTTAIKSIEFARKG [RBBP5] | 3.91 ± 0.62 | 3.86 ± 0.23 |  | 
21 | ENNMLQPETHIFTAPEEVPKVSDQ [DMRTC1] | 5.57 ± 0.18 | 5.56 ± 0.21 |  | 
22 | MQAEAEAASVRMRGEAEAFAIGAR [FLOT1] | 4.62 ± 0.31 | 4.75 ± 0.31 |  | 
23 | AKQTKRMLDMKVNPIQGLASKWDY [COX4I1] | 2.93 ± 0.35 | 2.72 ± 0.34 |  | 

Row | Sequence | protein stability index [1] | protein stability index [2] | protein stability index [3] | protein stability index [4]
24 | DIYILPSDNSGQVSPPESPTVTTS [BCL2L13] | 4.58 ± 0.27 | 4.5 ± 0.15 |  | 
25 | PRKRRRNGNEEDNHLPPQTKRSSR [FAM104A] | 5.34 ± 0.16 | 5.36 ± 0.16 |  | 
26 | GQCLDSTDQLEFTVEPRLLVADLL [RTN2] | 2.91 ± 0.2 | 3 ± 0.26 |  | 
27 | ALLHQAETLQPSVWFGGREHVLMF [TMEM175] | 2.28 ± 0.51 | 1.95 ± 0.5 |  | 
28 | SALTEGAKEEGGEEVAKAVLEQEE [EPB41L3] | 5.63 ± 0.3 | 5.54 ± 0.41 |  | 
29 | SRHCPQLPPPCAALWCSGHLNGHA [ADAMTS4] | 2.48 ± 0.3 | 2.48 ± 0.21 |  | 
30 | LEDSTMGSVADTVARVLRGCLENM [PLK2] | 2.79 ± 0.32 | 2.96 ± 0.38 |  | 
31 | EEPELVFTLGDCDVIQALDLSVPL [FKBP8] | 3.66 ± 0.28 | 3.48 ± 0.41 |  | 
32 | LSPLSLAQYDSWPHYPEYFQQPAP [LOXL2] | 2.62 ± 0.12 | 2.87 ± 0.18 |  | 
33 | DVTADSKVLEALKLKGAEVTYMNM [PLD5] | 3.57 ± 0.21 | 3.44 ± 0.29 |  | 
34 | LKDNPLDPVLAKVAGDCLDEKQCK [LRRC59] | 5.13 ± 0.44 | 5.19 ± 0.27 |  | 
35 | KFENLCKLMKEILDKKVEKVTISN [HSP90AB1] |  | 2.75 ± 0.38 |  | 
36 | PLGGGVGGQDGLGAPKDQQQPPQQ [KLHL14] | 5.31 ± 0.39 | 5.33 ± 0.26 |  | 
37 | GSRYDARRGVSDWDLRMKLHDRGA [DNAAF3] | 3.61 ± 0.23 | 3.66 ± 0.42 |  | 
38 | LCMDWCKDKRRIVSSSQDGKVIVW [GNB5] | 2.17 ± 0.14 | 2.33 ± 0.16 |  | 
39 | TQVLEDSEDSFCRRHPGLGKAFPS [TRAF3IP2] | 4.17 ± 0.35 | 4.12 ± 0.39 |  | 
40 | GCSSSGSCSQGSGILHYAHGDSQQ [CRY1] | 3.75 ± 0.41 | 3.67 ± 0.075 |  | 
41 | RKKTLVPGPPGSSRPVKGQVVTVH [FKBP8] | 3.53 ± 0.31 | 3.46 ± 0.2 |  | 
42 | EDSVFEERPERRSGPPASYCAKLC [C8orf76] | 4.44 ± 0.29 | 4.6 ± 0.07 |  | 
43 | VSSVFLLTLSIAFICCAQVKVSHL [PHTF1] | 3.57 ± 0.43 | 3.02 ± 0.58 |  | 
44 | RMLSKENKILQVFWEEHKASLGRE [CBY2] | 2.96 ± 0.39 | 3.35 ± 0.074 |  | 
45 | GPIGGMMPPQPGIPQQQGMRPPMP [ZNF207] | 4.35 ± 0.3 | 4.36 ± 0.27 |  | 
46 | GGGNDRVRNLQSEVEGVKNIMTQN [VAMP8] | 4.61 ± 0.34 | 4.75 ± 0.35 |  | 

Row | Sequence | protein stability index [1] | protein stability index [2] | protein stability index [3] | protein stability index [4]
47 | VIDGRNVTVTDVDIVFSKIKGKSC [TPPP] | 2.6 ± 0.3 | 2.75 ± 0.41 |  | 
48 | EKDNSRRMLTDKEREMAEIRDQMQ [LMNB1] | 5.3 ± 0.12 | 5.32 ± 0.13 |  | 
49 | RQWTVSDWGPCSGSCGQGRTIRHV [ADAMTSL2] | 2.15 ± 0.23 | 2.826 ± 0.025 |  | 
50 | PSSQLMPVKKQLQGASWELQSLRP [ZNF396] | 3.66 ± 0.34 | 3.78 ± 0.25 |  | 
51 | MYFSQEEWELLDPTQKALYNDVMQ [ZNF75A] | 3.67 ± 0.08 | 3.74 ± 0.33 |  | 
52 | RFPYLCQKNGGGAYLVPYLVLLII [SLC6A17] | 2.64 ± 1.1 | 2.49 ± 0.94 |  | 
53 | KSLDNMPNDEHWKALSRKSTSFRV [FBXO33] | 3.4 ± 0.11 | 3.56 ± 0.21 |  | 
54 | TNLPIFKLKESTVRRRYSDFEWLR [SNX3] | 2.62 ± 0.3 | 2.53 ± 0.36 |  | 
55 | RHTLQKLTCEFNNNHESLDEELHL [FBXO39] | 4.38 ± 0.21 | 4.56 ± 0.3 |  | 
56 | EGSADTEDRKLPAPGADVKVHRAR [EHMT1] | 5.27 ± 0.44 | 5.41 ± 0.17 |  | 
57 | NTNNLTFLMDLPSAGRSMPEASDQ [RNF180] | 4.28 ± 0.14 | 4.39 ± 0.2 |  | 
58 | KVRQLERDNAELENLIRERSQQQE [KRT33B] | 5.11 ± 0.3 | 5.13 ± 0.28 |  | 
59 | PCLLGSRVFSQGSHAWEVALGGLQ [TRIM35] | 2.36 ± 0.15 | 2.35 ± 0.19 |  | 
60 | YTGIVLLRCRKEFYQLVWSALPFI [POP5] | 3.12 ± 0.41 | 3.05 ± 0.47 |  | 
61 | APPAKLACPVCSKMVPRYDLNRHL [FAN1] | 2.39 ± 0.21 | 2.95 ± 0.55 |  | 
62 | HKKDCAREKPFKCQECGKTFRVSS [ZNF75A] | 3.45 ± 0.38 | 3.65 ± 0.41 |  | 
63 | RSLNVFVKEDDKLIFHRHPVAQST [SPSB1] | 3.15 ± 0.18 | 3.36 ± 0.26 |  | 
64 | RLEQEIATYRRLLEGEDAHLSSQQ [KRT16] | 3.95 ± 0.097 | 4.21 ± 0.18 |  | 
65 | SVDWLSQSSCSGPTHTPRPADFSL [VENTX] | 3.21 ± 0.25 | 3.28 ± 0.15 |  | 
66 | RDPPRPGPSRPAEKPPRPEAKSAQ [GCH1] | 5.33 ± 0.35 | 5.1 ± 0.045 |  | 
67 | LETRFKIQQLLEPQQYMAFLPHHI [FBXO34] | 2.36 ± 0.49 | 2.27 ± 0.33 |  | 
68 | ICARACNTTLTQYQLLATHVPTVW [RHOBTB1] | 2.52 ± 0.49 | 2.43 ± 0.7 |  | 
69 | TVGLLWFAHHSLFLHVRKATRAMG [TMEM175] | 2.46 ± 0.15 | 2.42 ± 0.39 |  | 

Row | Sequence | protein stability index [1] | protein stability index [2] | protein stability index [3] | protein stability index [4]
70 | MKLEKEEFVTLKAIALANSDSMHI [ESRRG] | 2.46 ± 0.22 | 2.48 ± 0.28 |  | 
71 | SEEAVREVHRLIEGKAPIISGVTK [TPPP] | 4.44 ± 0.29 | 4.72 ± 0.14 |  | 
72 | LDMELGPSQGQETNEVCEQAGGGA [ADAMTSL2] | 5.33 ± 0.52 | 5.27 ± 0.54 |  | 
73 | SCSSEDNLSLVCLPRSEDDDCDDD [DRICH1] | 5.59 ± 0.17 | 5.66 ± 0.15 |  | 
74 | NYTSRVWEYSSSIQNSDNDLPVVQ [TRIM29] | 3.88 ± 0.26 | 4.02 ± 0.32 |  | 
75 | RLVYKFGKNSSGWKEEEVLQSRN [ELF3] |  |  | 2.76 ± 0.35 | 3.21 ± 0.85
76 | REEQCAAYNHRTDLFKSFPGPMDW [ADAMTS4] | 3.06 ± 0.45 | 3.1 ± 0.3 |  | 
77 | FAVGYIKISWSTWGEMTLSLFSLL [SLC19A2] | 3.18 ± 0.6 | 3.15 ± 0.34 |  | 
78 | ISYSSMLGAVAGLALGPILRLYKH [MFSD9] | 2.58 ± 0.5 | 2.13 ± 0.25 |  | 
79 | LEISDQEVLEWYTAKDFIVGKSLT [EFHC1] | 3.06 ± 0.22 | 2.92 ± 0.3 |  | 
80 | QLLCPWAPLSGPQALMLPPGSFWG [VENTX] | 2.41 ± 0.62 | 1.73 ± 0.35 |  | 
81 | LLFEYPESSSPARGIAIVSVLVIL [KCNA4] | 2.92 ± 0.2 | 3 ± 0.36 |  | 
82 | RSQHARKETEFLRLKRTRLGLDDF [STK38L] | 2.95 ± 0.28 | 3.04 ± 0.44 |  | 
83 | SFQNMNSKRKAETWKKNRRQLAYS [STK38L] | 3.23 ± 0.33 | 3.33 ± 0.22 |  | 
84 | AAIFKIYLSCLEELMKCQIIYPRQ [TRIP13] | 3.08 ± 0.43 | 3.21 ± 0.17 |  | 
85 | SDTIPYLKKFLYNFDNPWNFQNIP [MIA2] | 2.28 ± 0.84 | 2.5 ± 0.59 |  | 
86 | FLGISIVGQSNERGDGGIYIGSIM [DVL3] | 2.87 ± 0.99 | 2.61 ± 0.68 |  | 
87 | DCLQLIADSETPTIQKGSYTFVPW [TNFSF13B] | 2.19 ± 0.28 | 2.2 ± 0.18 |  | 
88 | IGSTSESKDWEEVVVESMEQDRIP [MIA2] | 5.08 ± 0.32 | 5.11 ± 0.26 |  | 
89 | GEWGGRHPSWPWTRCLRMRPPRS |  |  | 2.81 ± 0.6 | 2.88 ± 0.36
